This passage reports He/Con_1a and He/Con_2b results from patent publication US20150344570A1 (published 2015).

For test [1], the target named is T1, FcγRIa (human, UniProt P12314 16-292).
T1 construct: extracellular domain; Soluble extracellular domain with C-terminal His tag, used as analyte; also called FcgRI; CD64; not shown: His tag at the C terminus
Kind of test: SPR (Biacore), captured antibody, FcγR as analyte, relative binding. The method, then:
(§1) The heterodimerized antibodies He Abs in which one of the H chains was introduced with an alteration were assayed for their binding activities to each activating FcγR and inhibitory FcγR according to the method described in Example 4. […] The activating FcγRs in FIGS. 26, 27, 28, and 29 are FcγRIa, FcγRIIa (R), FcγRIIa (H), and FcγRIIIa, respectively.
(§2) Analysis of interaction between objective antibody and the FcγR was carried out using Biacore T100 (GE Healthcare). HBS-EP+ (GE Healthcare) was used as the running buffer, and the measurement temperature was set to 25° C. Chips produced by immobilizing the antigen peptide by the amine coupling method to a Series S Sencor Chip CM5 (GE Healthcare), or alternatively, chips produced by allowing preliminarily biotinylated antigen peptides to interact with and immobilize onto a Series S Sensor Chip SA (certified) (GE Healthcare) were used. Antibodies of interest were captured onto an antigen peptide-immobilized chip, and allowed to interact to each FcγR diluted with running buffer. To regenerate and repeatedly use the chip, the antibodies captured on the chip were washed off by reacting 10 mM glycine-HCl, pH 1.5.

For test [2], the target named is T2, FcγRIIb (human, UniProt P31994 43-217).
T2 construct: extracellular domain; Soluble extracellular domain with C-terminal His tag, used as analyte; also called FcgRIIb; CD32B; not shown: His tag at the C terminus
T2 sequence (looked up): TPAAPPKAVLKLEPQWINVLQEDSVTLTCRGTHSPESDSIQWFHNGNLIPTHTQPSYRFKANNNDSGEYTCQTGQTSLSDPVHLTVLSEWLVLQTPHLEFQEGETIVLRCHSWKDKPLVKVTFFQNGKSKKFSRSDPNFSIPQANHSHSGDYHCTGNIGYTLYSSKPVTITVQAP
Described as above. How it is done:
as §1, §2

T1 sequence (P12314 16-292): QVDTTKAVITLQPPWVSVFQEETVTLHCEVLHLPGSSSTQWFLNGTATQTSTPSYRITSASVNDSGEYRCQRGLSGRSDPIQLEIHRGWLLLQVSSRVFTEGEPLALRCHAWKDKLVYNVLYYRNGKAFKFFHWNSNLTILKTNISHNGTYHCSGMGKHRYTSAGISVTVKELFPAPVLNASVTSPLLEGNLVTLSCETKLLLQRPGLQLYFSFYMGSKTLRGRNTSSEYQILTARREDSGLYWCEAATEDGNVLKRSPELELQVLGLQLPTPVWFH

B1: GpH7-A5/GpH7-B3 variant N325_19Q/GpL16-k0 (antibody, human IgG1, kappa)
heavy 1: not shown
heavy 2: not shown
light: DIVMTQSPLSLPVTPGEPASISCQASESLVHSNRNTYLHWYLQKPGQSPQLLIYKVSNRFSGVPDRFSGSGSGTDFTLKISRVEAEDVGVYYCSQNTHVPPTFGQGTKVEIERTVAAPSVFIFPPSDEQLKSGTASVVCLLNNFYPREAKVQWKVDNALQSGNSQESVTEQDSKDSTYSLSSTLTLSKADYEKHKVYACEVTHQGLSSPVTKSFNRGEC
notes: He Ab: mutation in one H chain only; also called He Ab
With B1, the He/Con_1a in test [1] was 99.1 % of GpH7-A5/GpH7-B3/GpL16-k0. Besides, in test [2], the He/Con_2b is 69.1 % of GpH7-A5/GpH7-B3/GpL16-k0.

B2: GpH7-A5/GpH7-B3 variant S324_15Y/GpL16-k0 (antibody, human IgG1, kappa)
heavy 1: not shown
heavy 2: not shown
light: B1 light
notes: as for B1
As for B2, the He/Con_1a in test [1] is 114 % of GpH7-A5/GpH7-B3/GpL16-k0. Besides, the He/Con_2b in test [2] was 88.2 % of GpH7-A5/GpH7-B3/GpL16-k0.

B3: GpH7-A5/GpH7-B3 variant N325_05P/GpL16-k0 (antibody, human IgG1, kappa)
heavy 1: not shown
heavy 2: not shown
light: B1 light
notes: as for B1
Turning to B3, the He/Con_1a in test [1] was 88.8 % of GpH7-A5/GpH7-B3/GpL16-k0. In addition, in test [2], the He/Con_2b was 26 % of GpH7-A5/GpH7-B3/GpL16-k0.

B4: GpH7-A5/GpH7-B3 variant S298_20W/GpL16-k0 (antibody, human IgG1, kappa)
heavy 1: not shown
heavy 2: not shown
light: B1 light
notes: as for B1
As to B4, the He/Con_1a in test [1] is 104 % of GpH7-A5/GpH7-B3/GpL16-k0. Besides, the He/Con_2b in test [2] is 41.1 % of GpH7-A5/GpH7-B3/GpL16-k0.

B5: GpH7-A5/GpH7-B3 variant S324_10E/GpL16-k0 (antibody, human IgG1, kappa)
heavy 1: not shown
heavy 2: not shown
light: B1 light
notes: as for B1
Take B5: the He/Con_1a in test [1] is 105 % of GpH7-A5/GpH7-B3/GpL16-k0. In test [2], the He/Con_2b was 77.4 % of GpH7-A5/GpH7-B3/GpL16-k0.

B6: GpH7-A5/GpH7-B3 variant S324_11K/GpL16-k0 (antibody, human IgG1, kappa)
heavy 1: not shown
heavy 2: not shown
light: B1 light
notes: as for B1
B6: the He/Con_1a in test [1] is 102 % of GpH7-A5/GpH7-B3/GpL16-k0. The He/Con_2b in test [2] is 68.6 % of GpH7-A5/GpH7-B3/GpL16-k0.

B7: GpH7-A5/GpH7-B3 variant N325_12R/GpL16-k0 (antibody, human IgG1, kappa)
heavy 1: not shown
heavy 2: not shown
light: B1 light
notes: as for B1
For B7, in test [1], the He/Con_1a was 84.2 % of GpH7-A5/GpH7-B3/GpL16-k0. The He/Con_2b in test [2] is 19.1 % of GpH7-A5/GpH7-B3/GpL16-k0.

B8: GpH7-A5/GpH7-B3 variant S298_19Q/GpL16-k0 (antibody, human IgG1, kappa)
heavy 1: not shown
heavy 2: not shown
light: B1 light
notes: as for B1
As to B8, the He/Con_1a in test [1] is 109 % of GpH7-A5/GpH7-B3/GpL16-k0. In test [2], the He/Con_2b is 73.3 % of GpH7-A5/GpH7-B3/GpL16-k0.

B9: GpH7-A5/GpH7-B3 variant S337_06M/GpL16-k0 (antibody, human IgG1, kappa)
heavy 1: not shown
heavy 2: not shown
light: B1 light
notes: as for B1
In the case of B9, in test [1], the He/Con_1a was 107 % of GpH7-A5/GpH7-B3/GpL16-k0. In addition, in test [2], the He/Con_2b was 96.7 % of GpH7-A5/GpH7-B3/GpL16-k0.

B10: GpH7-A5/GpH7-B3 variant S298_11K/GpL16-k0 (antibody, human IgG1, kappa)
heavy 1: not shown
heavy 2: not shown
light: B1 light
notes: as for B1
B10: the He/Con_1a in test [1] is 109 % of GpH7-A5/GpH7-B3/GpL16-k0. Moreover, the He/Con_2b in test [2] was 61.3 % of GpH7-A5/GpH7-B3/GpL16-k0.

B11: GpH7-A5/GpH7-B3 variant S337_02A/GpL16-k0 (antibody, human IgG1, kappa)
heavy 1: not shown
heavy 2: not shown
light: B1 light
notes: as for B1
Consider B11, for which the He/Con_1a in test [1] is 106 % of GpH7-A5/GpH7-B3/GpL16-k0. Besides, the He/Con_2b in test [2] is 97.2 % of GpH7-A5/GpH7-B3/GpL16-k0.

B12: GpH7-A5/GpH7-B3 variant S324_19Q/GpL16-k0 (antibody, human IgG1, kappa)
heavy 1: not shown
heavy 2: not shown
light: B1 light
notes: as for B1
As for B12, the He/Con_1a in test [1] was 112 % of GpH7-A5/GpH7-B3/GpL16-k0. Further, in test [2], the He/Con_2b is 66.8 % of GpH7-A5/GpH7-B3/GpL16-k0.

B13: GpH7-A5/GpH7-B3 variant S337_01G/GpL16-k0 (antibody, human IgG1, kappa)
heavy 1: not shown
heavy 2: not shown
light: B1 light
notes: as for B1
As to B13, the He/Con_1a in test [1] was 107 % of GpH7-A5/GpH7-B3/GpL16-k0. Also, the He/Con_2b in test [2] is 92 % of GpH7-A5/GpH7-B3/GpL16-k0.

B14: GpH7-A5/GpH7-B3 variant S337_04F/GpL16-k0 (antibody, human IgG1, kappa)
heavy 1: not shown
heavy 2: not shown
light: B1 light
notes: as for B1
Take B14: the He/Con_1a in test [1] was 106 % of GpH7-A5/GpH7-B3/GpL16-k0. In addition, the He/Con_2b in test [2] is 97.8 % of GpH7-A5/GpH7-B3/GpL16-k0.

B15: GpH7-A5/GpH7-B3 variant S298_16H/GpL16-k0 (antibody, human IgG1, kappa)
heavy 1: not shown
heavy 2: not shown
light: B1 light
notes: as for B1
For the molecule B15, in test [1], the He/Con_1a is 109 % of GpH7-A5/GpH7-B3/GpL16-k0. Further, the He/Con_2b in test [2] is 63.5 % of GpH7-A5/GpH7-B3/GpL16-k0.

B16: GpH7-A5/GpH7-B3 variant S324_16H/GpL16-k0 (antibody, human IgG1, kappa)
heavy 1: not shown
heavy 2: not shown
light: B1 light
notes: as for B1
Turning to B16, in test [1], the He/Con_1a is 113 % of GpH7-A5/GpH7-B3/GpL16-k0. In addition, the He/Con_2b in test [2] was 83.5 % of GpH7-A5/GpH7-B3/GpL16-k0.

B17: GpH7-A5/GpH7-B3 variant S337_03V/GpL16-k0 (antibody, human IgG1, kappa)
heavy 1: not shown
heavy 2: not shown
light: B1 light
notes: as for B1
Take B17: the He/Con_1a in test [1] is 107 % of GpH7-A5/GpH7-B3/GpL16-k0. In test [2], the He/Con_2b is 98.9 % of GpH7-A5/GpH7-B3/GpL16-k0.

B18: GpH7-A5/GpH7-B3 variant S324_01G/GpL16-k0 (antibody, human IgG1, kappa)
heavy 1: not shown
heavy 2: not shown
light: B1 light
notes: as for B1
Regarding B18, the He/Con_1a in test [1] was 98.8 % of GpH7-A5/GpH7-B3/GpL16-k0. Moreover, the He/Con_2b in test [2] is 81.1 % of GpH7-A5/GpH7-B3/GpL16-k0.

B19: GpH7-A5/GpH7-B3 variant N325_16H/GpL16-k0 (antibody, human IgG1, kappa)
heavy 1: not shown
heavy 2: not shown
light: B1 light
notes: as for B1
Turning to B19, the He/Con_1a in test [1] is 95.1 % of GpH7-A5/GpH7-B3/GpL16-k0. Moreover, the He/Con_2b in test [2] was 70.1 % of GpH7-A5/GpH7-B3/GpL16-k0.

B20: GpH7-A5/GpH7-B3 variant S298_12R/GpL16-k0 (antibody, human IgG1, kappa)
heavy 1: not shown
heavy 2: not shown
light: B1 light
notes: as for B1
With B20, in test [1], the He/Con_1a is 109 % of GpH7-A5/GpH7-B3/GpL16-k0. Also, in test [2], the He/Con_2b is 57.8 % of GpH7-A5/GpH7-B3/GpL16-k0.
